Assay results: paper PMC5387736, “SnoN Stabilizes the SMAD3/SMAD4 Protein Complex” (Scientific Reports, 2017)
Blank lines part the entries; values can stand above or below the molecule they belong to.

B1: His-tagged MH2 domain of SMAD4 (I314-Q549) (domain or fragment, UniProt Q13485 314-549, looked up)
chain: ISNHPAPEYWCSIAYFEMDVQVGETFKVPSSCPIVTVDGYVDPSGGDRFCLGQLSNVHRTEAIERARLHIGKGVQLECKGEGDVWVRCLSDHAVFVQSYYLDREAGRAPGDAVHKIYPSAYIKVFDLRQCHRQMQQQAATAQAAAAAQAAAVAGNIPGPGSVGGIAPAISLSAAAGIGVDDLRRLCILRMSFVKGWGPDYPRQSIKETPCWIEIHLHRALQLLDEVLHTMPIADPQ
notes: SMAD4, MH2 domain, residues I314-Q549; Cloned in pNIC28Bsa4; also called ^HisSMAD4; not shown: His6, N-terminal, kept

How the values were obtained:
[1] = target: Strep II-tagged MH2 domain of SMAD3 (S423E, S425D), E145-D425; test: SEC; gel filtration of the single proteins in buffer A (Superdex 200 for SMAD4 and SnoN constructs, Sephacryl 300 for SMAD3); oligomeric state from the retention volume
SnoN (M1-S356), untagged = target: T1, SnoN (M1-S356), untagged (UniProt P12757-1 1-356); test: fluorescence labelling of cysteines (IRDye 800CW maleimide) and gel scanning; Ni-NTA eluate of the isolated SnoN-SMAD3-SMAD4 complex, boiled in 1% SDS, labelled, SDS-PAGE, near-infrared imaging; three measurements
T1 construct: Cloned in pNIC28Bsa4; the asterisk marks the TEV cut, so SM probably remains at the N-terminus after cleavage; also called truncated SnoN (M1-S356, 38.6 kDa); not shown: His6, N-terminal, cleaved
T1 sequence (looked up): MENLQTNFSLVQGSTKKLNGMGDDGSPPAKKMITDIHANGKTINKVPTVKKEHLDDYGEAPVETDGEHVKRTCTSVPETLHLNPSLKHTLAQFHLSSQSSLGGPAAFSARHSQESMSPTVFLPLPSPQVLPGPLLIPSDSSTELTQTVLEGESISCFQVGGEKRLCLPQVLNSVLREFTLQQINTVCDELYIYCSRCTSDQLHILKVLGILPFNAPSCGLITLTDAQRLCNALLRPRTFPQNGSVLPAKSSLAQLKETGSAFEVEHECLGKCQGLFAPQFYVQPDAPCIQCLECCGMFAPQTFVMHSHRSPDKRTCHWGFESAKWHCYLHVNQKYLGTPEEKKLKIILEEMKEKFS

[2] = target: B1; test: crystal structure; SnoN SAND domain with SMAD4 MH2 domain, complex reconstituted 1:1; sitting drop, 2.8-3.3 M NaCl, 0.1 M Bis-Tris pH 5.5, 20 °C; 2.6 Å
[3] = target: B1; test: SPR; BIAcore 2000; SMAD4 (I314-Q549) amine-coupled on CM5 (about 1300 RU); SnoN SAND domain 0-500 nM injected; 10 mM HEPES pH 7.4, 150 mM NaCl, 0.005% TWEEN-20, 0.5 mM TCEP; room temperature; one-step binding model; details: both partners purified

stoichiometry N [1]: 3
stoichiometry N (SMAD3 per SnoN) (SnoN (M1-S356), untagged): 2.1
Molecule: Strep II-tagged MH2 domain of SMAD3 (S423E, S425D), E145-D425 (domain or fragment)

Molecule: B1
stoichiometry N [2]: 3
stoichiometry N (SnoN (M1-S356), untagged; both partners purified): 1.2 SMAD4 per SnoN

Kd [3]: 1.1 µM
koff [3]: 0.129 s⁻¹
kon [3]: 120000 M⁻¹ s⁻¹
B2: SnoN SAND-domain (T238-S356) with C-terminal biotinylation sequence (domain or fragment, UniProt P12757-1 238-356, looked up)
chain: TFPQNGSVLPAKSSLAQLKETGSAFEVEHECLGKCQGLFAPQFYVQPDAPCIQCLECCGMFAPQTFVMHSHRSPDKRTCHWGFESAKWHCYLHVNQKYLGTPEEKKLKIILEEMKEKFS
notes: SnoN, SAND domain, residues T238-S356; Cloned in pNicBio3 for the SPR analysis; In the SPR it was the analyte, SMAD4 was amine-coupled; also called SnoN (T238-S356)
